Values quoted from earlier work as cited in paper PMC4589137.
pKd: −log10 of the molar value.

Molecular target: α-melanocyte stimulating hormone (α-MSH) (UniProt P01189)

melanocortin 1 receptor (MC1R) (from UniProt Q01727)
pKd: 9.40
